Measurements taken from US20220396632A1 (VERSEAU THERAPEUTICS, published 2022).
Non-standard residues stand in square brackets, D forms with d. No end group written: not given here. *: point of attachment. Biotin = O=C1N[C@H]2[C@H](CS[C@H]2CCCCC(=O)*)N1; sY = N[C@@H](Cc1ccc(OS(=O)(=O)O)cc1)C(=O)O

T1: Biotin Y46,48,51(SO3) PSGL-1(42-62) peptide (human, sulfotyrosine at Y46, Y48 and Y51; C-terminal Lys-biotin)
T1 construct: also called fully sulfated N-terminal PSGL-1 peptide
T1 peptide: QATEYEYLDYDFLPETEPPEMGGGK

T2: Biotin PSGL-1(42-62) peptide, unmodified (human, C-terminal Lys-biotin)
T2 construct: Residues 42-62 followed by GGGK-biotin; also called WT; wild-type
T2 peptide: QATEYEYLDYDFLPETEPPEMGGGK

T3: Sulfotyr fibrinogen γ peptide (not fully specified; Y8 and Y12 sulfated (SO3); C-terminal biotin)
T3 construct: also called Fibrinogen gamma peptide; human sulfotyrosinylated fibrinogen peptide
T3 peptide: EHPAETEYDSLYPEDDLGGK

T4: SulfoCCK biotin peptide (human)
T4 construct: also called sulfotyrosine CCK peptide
T4 peptide: SHRISDRD[sY]MGWMDFGGK(Biotin)

T5: SulfoTyr C4 peptide (not fully specified; Y4, Y7 and Y9 sulfated (SO3); C-terminal biotin)
T5 construct: also called C4 alpha chain peptide; human sulfotyrosinylated C4 peptide
T5 peptide: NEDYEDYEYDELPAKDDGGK

T6: Sulfotyrosine D6 biotin peptide (human)
T6 construct: also called D6 peptide
T6 peptide: ENSSFY[sY][sY]D[sY]LDEVAFGGK(Biotin)

T7: Sulfotyrosine CCR2b biotin peptide (human)
T7 construct: also called CCR2b peptide
T7 peptide: TTFFD[sY]D[sY]GAPSHGGK(Biotin)

T8: Recombinant human PSGL-1(ECD)-hFc1 (R&D Systems, Cat. 3345-PS) (human, UniProt Q14242 42-305)
T8 construct: Bought; Gln42-Val295 counted on AAC50061; also called PSGL-1-Fc; PSGL-1-hFc1 chimera; not shown: human IgG1 Fc, Pro100-Lys330
T8 sequence: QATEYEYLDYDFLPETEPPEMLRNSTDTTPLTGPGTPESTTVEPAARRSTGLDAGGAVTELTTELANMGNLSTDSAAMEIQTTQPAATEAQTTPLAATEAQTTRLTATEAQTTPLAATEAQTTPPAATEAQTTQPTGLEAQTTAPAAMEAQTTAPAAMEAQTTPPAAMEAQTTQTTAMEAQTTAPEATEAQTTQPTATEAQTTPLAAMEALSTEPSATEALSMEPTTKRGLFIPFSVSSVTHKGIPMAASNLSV

T9: Human fibrinogen protein (ThermoFisher, RP-43142) (human, UniProt P02671 20-629; P02675 31-491; P02679 27-453, limits assumed, natural sulfotyrosines)
T9 construct: mature; Native dimer with 3 pairs of non-identical chains; also called gamma-fibrinogen; γ fibrinogen protein
T9 sequence (looked up) 1: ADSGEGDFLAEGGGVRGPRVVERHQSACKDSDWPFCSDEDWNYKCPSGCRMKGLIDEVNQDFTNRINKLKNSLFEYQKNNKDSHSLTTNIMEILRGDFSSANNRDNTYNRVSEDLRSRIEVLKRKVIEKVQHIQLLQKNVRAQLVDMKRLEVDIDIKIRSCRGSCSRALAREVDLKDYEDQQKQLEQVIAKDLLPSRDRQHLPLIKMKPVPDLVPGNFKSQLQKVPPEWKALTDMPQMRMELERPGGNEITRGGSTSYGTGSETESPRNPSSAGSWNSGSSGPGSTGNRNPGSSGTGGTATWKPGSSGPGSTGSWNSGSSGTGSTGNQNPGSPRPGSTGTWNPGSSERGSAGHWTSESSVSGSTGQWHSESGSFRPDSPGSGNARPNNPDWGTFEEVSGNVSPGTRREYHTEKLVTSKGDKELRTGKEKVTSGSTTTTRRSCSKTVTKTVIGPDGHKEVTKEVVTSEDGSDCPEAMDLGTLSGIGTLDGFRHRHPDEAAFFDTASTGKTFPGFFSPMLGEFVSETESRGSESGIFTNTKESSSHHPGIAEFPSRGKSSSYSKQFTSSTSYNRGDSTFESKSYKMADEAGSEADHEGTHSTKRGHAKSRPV
T9 sequence (looked up) 2: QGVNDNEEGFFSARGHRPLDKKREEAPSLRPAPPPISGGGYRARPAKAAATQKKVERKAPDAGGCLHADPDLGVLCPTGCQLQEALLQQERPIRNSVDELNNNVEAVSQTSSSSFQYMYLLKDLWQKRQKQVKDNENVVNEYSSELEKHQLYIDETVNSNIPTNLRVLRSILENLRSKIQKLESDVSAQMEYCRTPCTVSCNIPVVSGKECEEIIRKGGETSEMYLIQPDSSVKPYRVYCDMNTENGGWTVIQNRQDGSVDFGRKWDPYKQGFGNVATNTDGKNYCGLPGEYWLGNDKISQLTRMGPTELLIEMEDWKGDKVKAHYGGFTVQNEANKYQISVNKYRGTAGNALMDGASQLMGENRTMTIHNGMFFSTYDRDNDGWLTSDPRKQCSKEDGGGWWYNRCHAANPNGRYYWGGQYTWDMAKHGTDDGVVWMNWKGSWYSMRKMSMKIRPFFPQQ
T9 sequence (looked up) 3: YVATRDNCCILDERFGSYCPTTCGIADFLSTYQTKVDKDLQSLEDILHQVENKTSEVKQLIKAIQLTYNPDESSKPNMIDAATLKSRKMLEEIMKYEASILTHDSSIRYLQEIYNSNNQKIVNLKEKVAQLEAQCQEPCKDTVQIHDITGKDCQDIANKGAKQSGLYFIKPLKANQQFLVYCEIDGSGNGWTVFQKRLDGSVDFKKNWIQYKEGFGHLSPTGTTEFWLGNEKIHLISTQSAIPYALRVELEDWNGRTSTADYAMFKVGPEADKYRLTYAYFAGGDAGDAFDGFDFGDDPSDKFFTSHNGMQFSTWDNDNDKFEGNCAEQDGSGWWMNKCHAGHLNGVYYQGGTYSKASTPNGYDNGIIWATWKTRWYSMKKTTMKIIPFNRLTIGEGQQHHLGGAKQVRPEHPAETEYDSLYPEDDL

T10: Scrambled Y42,52,63(SO3) PSGL-1(42-62) biotin peptide (sulfotyrosine at peptide positions 1, 11 and 22; C-terminal Lys-biotin)
T10 peptide: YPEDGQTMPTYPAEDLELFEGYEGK


Key:
[1] = biological target: T1, Biotin Y46,48,51(SO3) PSGL-1(42-62) …; assay: ELISA, immobilized biotin peptide
Protocol: (§1) A typical ELISA was performed by coating high binding half-well plates (Corning Cat. #3690) with 3 ug/mL/25 ul per well of biotinylated N-terminal PSGL-1 peptides, which incorporated residues 42 to 62 of the protein, in PBS, pH 7.4, overnight at 4° C. The peptide was unmodified or contained sulfated tyrosine at all 3 tyrosine positions (46, 48, and 51) or at one position (tyr51) (Table 7).
(§2) PSGL-1 protein or peptide served as a positive control. […] […] […] For each antibody, duplicate values were averaged and average assay background was subtracted.

[2] = biological target: T2, Biotin PSGL-1(42-62) peptide, unmodified; assay: ELISA, immobilized biotin peptide
Protocol: as §1, §2

[3] = biological target: T11, Cynomolgus PSGL-1(ECD)-hFc1 (cynomolgus macaque); assay: ELISA, 20 nM mAb on plate cyno PSGL-1(ECD)-Fc
T11 construct: also called Cyno PSGL1-Fc; Cyno PSGL-1(ECD)-Fc
Protocol: Antibody binding to plate-immobilized cyno PSGL-1(ECD) was determined either at one concentration (20 nM) or by generating full antibody binding curves (0.003-200 nM). A typical ELISA was performed by overnight coating at 4° C. with 3 ug/mL/25 ul per well of recombinant cyno PSGL-1(ECD) protein in PBS, pH 7.4, in high binding half-well plates (Corning Cat. #3690). […] Anti-PSGL-1 IgG in assay buffer (blocking buffer containing 0.05% tween 20) was added into test and control wells (20 nM/25 ul/well) and the plate incubated for 45 min at 37° C. […] The plate was incubated for 45 min at 37° C., and mAb bound to plate-immobilized target determined at A450 nm using HRP substrate (3,3′,5,5′-tetramethylbenzidine (TMB)). For each antibody, duplicate values were averaged and assay background subtracted.

[4] = biological target: T3, Sulfotyr fibrinogen γ peptide; assay: ELISA, 50 nM mAb
Protocol: (§3) Recombinant PSGL-1-hFc1 chimera protein consisting of PSGL-1's extracellular domain (ECD) served as a positive control. […] Primary antibody was added (25 ul per well) in duplicate at 50 nM in assay buffer (blocking buffer containing 0.05% Tween®20) into test and control (just blocked) wells and the plate incubated for 45 min at 37° C.

SulfoCCK biotin peptide = biological target: T4, SulfoCCK biotin peptide; assay: ELISA, 50 nM mAb
Protocol: as §3

[5] = biological target: T12, Human complement C4 protein (Millipore Sigma, Cat. 204886) (human, UniProt P0C0L4 20-675; P0C0L4 680-1446; P0C0L4 1454-1744, limits assumed, natural sulfotyrosines); assay: ELISA, 50 nM mAb
T12 construct: mature
Protocol: as §3

SulfoTyr C4 peptide = biological target: T5, SulfoTyr C4 peptide; assay: ELISA, 50 nM mAb
Protocol: as §3

[6] = biological target: T6, Sulfotyrosine D6 biotin peptide; assay: ELISA, 50 nM mAb
Protocol: as §3

[7] = biological target: T7, Sulfotyrosine CCR2b biotin peptide; assay: ELISA, 50 nM mAb
Protocol: as §3

[8] = biological target: T8, Recombinant human PSGL-1(ECD)-hFc1 (R&D …); assay: ELISA, 50 nM mAb
Protocol: as §3

[9] = biological target: T9, Human fibrinogen protein (ThermoFisher, …); assay: ELISA, 50 nM mAb
Protocol: as §3

[10] = biological target: T10, Scrambled Y42,52,63(SO3) PSGL-1(42-62) …; assay: ELISA, immobilized biotin peptide
Protocol: as §1, §2

T12 sequence (P0C0L4 20-675 limits assumed, form in doubt, chain 1 of 3): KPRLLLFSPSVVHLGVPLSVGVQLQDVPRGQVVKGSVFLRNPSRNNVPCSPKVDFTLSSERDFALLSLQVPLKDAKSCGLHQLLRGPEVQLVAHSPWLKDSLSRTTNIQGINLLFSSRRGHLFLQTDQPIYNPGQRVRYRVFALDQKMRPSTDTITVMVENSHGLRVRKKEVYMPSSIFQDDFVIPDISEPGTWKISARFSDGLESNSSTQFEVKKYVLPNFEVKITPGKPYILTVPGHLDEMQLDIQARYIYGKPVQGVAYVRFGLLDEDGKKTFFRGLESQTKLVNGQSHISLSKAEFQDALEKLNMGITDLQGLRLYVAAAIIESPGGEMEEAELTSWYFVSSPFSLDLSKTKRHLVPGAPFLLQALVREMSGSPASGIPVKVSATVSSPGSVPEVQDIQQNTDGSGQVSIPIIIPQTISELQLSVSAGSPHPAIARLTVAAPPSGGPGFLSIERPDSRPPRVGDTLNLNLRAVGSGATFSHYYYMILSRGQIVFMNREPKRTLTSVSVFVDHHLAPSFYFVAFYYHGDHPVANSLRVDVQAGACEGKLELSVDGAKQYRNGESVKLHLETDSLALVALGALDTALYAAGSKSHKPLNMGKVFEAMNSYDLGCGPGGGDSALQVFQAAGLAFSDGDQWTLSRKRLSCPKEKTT
T12 sequence (P0C0L4 680-1446 limits assumed, form in doubt, chain 2 of 3): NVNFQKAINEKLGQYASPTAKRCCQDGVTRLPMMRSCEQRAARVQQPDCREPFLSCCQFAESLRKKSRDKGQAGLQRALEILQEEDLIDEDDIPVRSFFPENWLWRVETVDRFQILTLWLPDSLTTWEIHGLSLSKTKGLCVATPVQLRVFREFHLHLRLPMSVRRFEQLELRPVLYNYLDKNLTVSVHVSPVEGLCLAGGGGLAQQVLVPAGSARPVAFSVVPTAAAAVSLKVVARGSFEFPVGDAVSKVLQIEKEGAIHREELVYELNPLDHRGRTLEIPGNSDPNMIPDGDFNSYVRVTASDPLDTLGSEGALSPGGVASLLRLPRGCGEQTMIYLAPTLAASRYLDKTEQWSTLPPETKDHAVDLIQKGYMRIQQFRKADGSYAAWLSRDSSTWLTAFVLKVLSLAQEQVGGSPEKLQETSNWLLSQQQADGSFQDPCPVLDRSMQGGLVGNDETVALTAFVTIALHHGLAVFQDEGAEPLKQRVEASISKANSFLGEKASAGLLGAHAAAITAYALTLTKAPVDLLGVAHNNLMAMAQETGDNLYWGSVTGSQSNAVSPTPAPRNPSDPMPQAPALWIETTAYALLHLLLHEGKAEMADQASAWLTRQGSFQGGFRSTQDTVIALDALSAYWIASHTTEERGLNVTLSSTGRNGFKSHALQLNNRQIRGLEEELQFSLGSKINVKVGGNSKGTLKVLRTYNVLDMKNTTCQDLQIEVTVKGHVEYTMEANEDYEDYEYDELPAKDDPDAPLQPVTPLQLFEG
T12 sequence (P0C0L4 1454-1744 limits assumed, form in doubt, chain 3 of 3): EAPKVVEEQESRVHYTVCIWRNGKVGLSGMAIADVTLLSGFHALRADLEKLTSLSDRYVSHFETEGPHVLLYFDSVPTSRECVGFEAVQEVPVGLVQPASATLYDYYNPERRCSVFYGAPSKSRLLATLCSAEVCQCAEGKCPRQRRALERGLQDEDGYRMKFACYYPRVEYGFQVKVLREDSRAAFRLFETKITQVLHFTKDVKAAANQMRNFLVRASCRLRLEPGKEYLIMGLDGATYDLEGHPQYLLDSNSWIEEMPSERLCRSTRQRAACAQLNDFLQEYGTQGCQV

A450nm, 20 nM mAb [1] [A450nm]	EC50 [1] [nM]	EC50 [2] [nM]	A450nm [3] [A450 nm]	binding normalized to PSGL-1 [4]	binding normalized to PSGL-1 (SulfoCCK biotin peptide)	binding normalized to PSGL-1 [5]	binding normalized to PSGL-1 (SulfoTyr C4 peptide)	binding normalized to PSGL-1 [6]	binding normalized to PSGL-1 [7]	A450nm [8] [A450nm]	binding normalized to PSGL-1 [9]	binding result [9]	binding result [10]	A450nm, 20 nM mAb [2] [A450nm]	A450nm, 20 nM mAb [10] [A450nm]	Binder
2.8	0.07	~0.05	1.77	0.3	0.25	0.22	0.35	0.56	0.26	1.96	-0.15	no binding (tested: 50 nM)	–	–	–	09B09 (antibody, IgG4, V domains shown) VH: EVKLLESGGGLVQPGGSLRLSCAASGITFSTYAMMWVRQAPGKGLEWVSGISGSGASRYYADSVKGRFTISRDNSKNMLYLQMNSLRAEDTAVYYCAKKVLGRRKQYFDDWGQGTLVTVSS VL: DIVMTQSPLSLPVTPGEPASISCRSSQSLLHSNGYNYLDWYLQRPGQSPQLLIYLGSHRASGVPDRFSGSGSGTEHTLKITTVAAEDVGVYYCMQALQSPPTFGQGTRLDIK
2.72	–	–	0.83	0.85	0.58	0.94	0.83	0.75	–	2.32	0.2	–	no binding (tested: 20 nM)	0.26	–	01E01 (antibody, V domains shown) VH: EVQLVQSGGGVVQPGRSLRLSCAASGFTFSSYGMHWVRQAPGKGLEWVAVISYDGSNKYYADSVKGRFTISRDNSKNTLYLQMHSLRAEDTAVYYCANLVGTTNSWGQGTLVTVSS VL: not shown
2.67	–	–	0.78	0.09	0.63	0.79	0.07	0.11	0.63	–	0.17	–	no binding (tested: 20 nM)	1.12	0.03	01A11 (antibody, IgG4, V domains shown) VH: EVKLLESGGGLVQPGGSLRLSCATSGFSFSDYWMSWVRQAPGKGLEWVASIKKDGSEKYYVDSVKGRFTISRDNAKNSLYVQMNSLRAEDTAIYYCVVFGAWGPGTLVTVSS VL: DIVMTQTPLSLPVTLGQPASISCRSGRSLVYSDGNTYLNWFQQRPGQSPRRLIYKVSNRDSGVPDRFSGGGSGTDFTLKISRVEAEDVAIYYCMQGTHWPPTFGQGTKLEIK
2.61	0.16	6.2	0.39	0.59	0.23	0.47	0.61	0.52	0.27	2.28	0.05	–	–	–	–	03E05 (antibody, IgG4, V domains shown) VH: EVKLLESGGDLAQTGGSLRLSCVASGFTFSSYPMSWVRQAPGKGLEWVSAIRRSGATQYADSVKGRFTISRDNSKNTVYLQMNSLRVEDTAVYYCAKGTYDLGQGTLVTVSS VL: DIVMTQTPLSLPVTLGQPASISCRSSQSLVYSDGNTYLNWFHQRPGQSPRRLIYKVSNRDSGVPDRFSGSGSDTEFTLKISRVEAEDVGVYYCMQATHWPLTFGGGTKVEIK
2.79	0.05	~0.05	2.11	0.09	0.06	0.32	0.05	0.26	0.04	2.65	0.07	–	–	–	–	09D11 (antibody, IgG4, V domains shown) VH: QVQLVESGGGFIQPGGSLRLSCAASGLTFSNYAMTWVRQAPGKGLEWVSTISGGGGNTYYTDSVKGRFTISRDNSKNTLYLQMNSLKAEDTAVYRCAKGLAAALFDYWGQGTLVTVSS VL: DIVLTQSPDSLPVTPGEPASISCRSSRSLLHSNGHNFLAWYLQKPGQSPHLLIYLGSNRASGVPDRFSGSGSGTDFTLKISRVEAEDVGIYYCMQALQTPITFGQGTRLDIK
